From the DeepSol protein solubility set

Experiment: soluble on expression in E. coli; label from the status in PepcDB or PDB records

Sequence | soluble on expression in E. coli
MVSIMNKNELITEILKNEVVKALGCTEVGLIGYTVAKAKPEDLYSIKEIKLILDKGTFKNAFSVGVPNTNKFGILPAVVGGLLGREENKLEVFKDIKYDEKLEEFIENKLKIEVIDSDVYCKVIIKANKVYEAETKGSHSGKSLSDDLKNAYKSLTLKDFIDYIEDIPEEVIKIIKETIETNKNLSTPEVPEDFISLDLKDEILNHMLKKTVSAVYNRMIGINKPAMAIAGSGNMGLTATLPIIAYDEIKGHDEEKLTKSITLSALTTIYSAYHSSYISAMCGCVNRGGIGAVSGLSYYIFGFDRIEESIKSFTANLPGIVCDGGKIGCALKIASGVFAIYLSLFSKVPYTNGIVGKDFKECIENIGKIGKAMKPVDDEIIEILKNKK | soluble
MVSRRVQALLDQLRAQGIQDEQVLNALAAVPREKFVDEAFEQKAWDNIALPIGQGQTISQPYMVARMTELLELTPQSRVLEIGTGSGYQTAILAHLVQHVCSVERIKGLQWQARRRLKNLDLHNVSTRHGDGWQGWQARAPFDAIIVTAAPPEIPTALMTQLDEGGILVLPVGEEHQYLKRVRRRGGEFIIDTVEAVRFVPLVKGELA | soluble
MVSSQKLEKPIEMGSSEPLPIADGDRRRKKKRRGRATDSLPGKFEDMYKLTSELLGEGAYAKVQGAVSLQNGKEYAVKIIEKQAGHSRSRVFREVETLYQCQGNKNILELIEFFEDDTRFYLVFEKLQGGSILAHIQKQKHFNEREASRVVRDVAAALDFLHTKDKVSLCHLGWSAMAPSGLTAAPTSLGSSDPPTSASQVAGTTGIAHRDLKPENILCESPEKVSPVKICDFDLGSGMKLNNSCTPITTPELTTPCGSAEYMAPEVVEVFTDQATFYDKRCDLWSLGVVLYIMLSGYPPFVGHCGADCGWDRGEVCRVCQNKLFESIQEGKYEFPDKDWAHISSEAKDLISKLLVRDAKQRLSAAQVLQHPWVQGQAPEKGLPTPQVLQRNSSTMDLTLFAAEAIALNRQLSQHEENELAEEPEALADGLCSMKLSPPCKSRLARRRALAQAGRGEDRSPPTAL | soluble
MVTSTRARFGQFVHRRRRLLNLTQDEVTAAGGPSDAAQTRAENGTGPDPSIETLRKLDVALRWAPGSAARTLDGGHPTPLEALDGEDRSPAARPLTLGPSEIPLDLDTIIEILGPHTQITKLSAAHPEVPGLAEAAGELSRVVSKITGAYVTRLLEVNGGPTGPRQPLVEFAFGHLLEEPTTVTDPRELEEARYRRFLYGRGEDLDAATRERFWRRWEDAVKLVATEDPERSGDAEVNA | not soluble
MVTVPDAIKGSSPTPQQDLVRVMSAPQLYVGQEARFGGKVVAVQNQQGKTRLEIATVPLDSGARPTLGEPSRGRIYADVNGFLDPVDFRGQLVTVVGPITGAVDGKIGNTPYKFMVMQVTGYKRWHLTQQVIMPPQPIDPWFYGGRGWPYGYGGWGWYNPGPARVQTVVTELEHHHHHH | soluble
MVVEENCSMHHLERELDLELEIDMAMECAPIGRTIKSALLRAQSEARVIVGLSAAINVLSKSPEGSLFCLMAQPKDGDSATHMHEVLLEAFCYENDIYVIKVDDATKLSRILGQDSVESCCLVQKVWADAPEEQLTKAENQLVDYCEAHWDAPQQPIVQLPAV | not soluble
MVVFNGLLKIKICEAVSLKPTAWSLRDAVGPRPQTFLLDPYIALNVDDSRIGQTATKQKTNSPAWHDEFVTDVCNGRKIELAVFHDAPIGYDDFVANCTIQFEELLQNGSRHFEDWIDLEPEGKVYVIIDLSGSSG | soluble
MVVNTHRVPSVDVLLDVITERIGLINGAKKLYTTSGTLVKDINKIKDGQNYVASSSHFTPAAYGGQHQPIQKEVKLKKKKKKRSQTVQPRKTEHIELGDEISIPLNEPVVLEKKKKKKKKLVQKNLDLHGSIETLAETAEIELPSEIEDSEEEDEHEHRRSATPDHHRPATKHSVAPSRASSRRGSRRDEEKREEEDEERKKKDEKKRKSVSSSRRKSQAQHHGQPNWGDLSSFTKNIESLLKN | not soluble
MVYVSNKYLTMSEMKVNAQYILNYLSSNGWTKQAICGMLGNMQSESTINPGLWQNLDEGNTSLGFGLVQWTPASNYINWANSQGLPYKNMDSELKRIIWEVNNNAQWINLRDMTFKEYIKSTKTPRELAMIFLASYERPANPNQPERGDQAEYWYKNLSGGGGGGLQLAQFPMDIINISQGENGSFSHKGTLCIDFVGKTEKYPYYAPCDCTCVWRGDASAYLAWTSDKEVMCADGSVRYITWVNVHESPLPFDVGKKLKKGDLMGHTGIGGNVTGDHWHFNVIDGKEYQGWTKKPDSCLAGTELHIYDVFAVNNVEIINGNGYDWKTSDWQDG | soluble
MWLDRRGWLRVLGHWRYDLRRPSFTRTWSGDKGPMAETVSTQVGTEGGLRASHQQNGDAGGDAKVELSPGPPKPAGREVEPAPVGGEHPSAAAPGPGKHKKRRGATRERVVPPPKKRRTGVSFGDEHFAETSYYFEGGLRKVRPYYFDFRTYCKGRWVGHSLLHVFSTEFRAQPLAYYEAAVRAGRLQLNEKPVQDLNIVLKDNDFLRNTVHRHEPPVTAEPIRLLAENEDVVVVDKPSSIPVHPCGRFRHNTVIFILGKEHQLKELHPLHRLDRLTSGVLMFAKTAAVSERIHEQVRDRQLEKEYVCRVEGEFPTEEVTCKEPILVVSYKVGVCRVDPRGKPCETVFQRLSYNGQSSVVRCRPLTGRTHQIRVHLQFLGHPILNDPIYNSVAWGPSRGRGGYIPKTNEELLRDLVAEHQAKQSLDVLDLCEGDLSPGLTDSTAPSSELGKDDLEELAAAAQKMEEVAEAAPQELDTIALASEKAVETDVMNQETDPLCAECRLVRQDPLPQDLVMFLHALRYKGPGFEYFSPMPAWAQDDWQKD | soluble
MWNNVTTIKIQFHRIEQLGSVQLDDKNRICKFTSFDGQLELQGRHGRCSVDIESPEFVRFVQFLVNKTEKSNEPIDQRRVFGKFRALEHGVLDVTTYRNRFHGVVARNMILLDNLSIDLSIRMIFALSGKMETNFLSEVEKHGIVRLDNQNRIIEYVANDGKMKLKGQHDGRKDHGTQATQDPV | not soluble
MWPSNRGPTLFQYSIRCLGFVAFIGVVRCHCPHMMGVKPPGPPSGPSPPGKFPDGDEGWDYDETAAPGIVPEPHFIQSTYIYRSPNVQEKTFSSRVVNVLKDIRTRLAKSARLTLENENIECSSPTDHYRCQEYPASGTWNYLIVEDQQKGAVTYTFDRKFNEKNDGTIEMALLDAFSRHSPSSLIAFASSEAEKEVGYIRALTVQEMDSLSGKRSHQKISMEKFGPNELILLEPALLEVRTGANLKLNSDSLRRIDSTKEFDKLLEEFRNVFILFWNSNRMVSLHTFNLWSRVADKIKISEDTLLAHVPCHDNADFCQGLNSEDYHTVVSYRNGQNTGKTENIGDVEFYENWVELSLSGAIQRLPNESKLSEFKKGIVGGKKRSSVTIGVFPSDQDTSFQHFQIAAEKLSGKYYVAYFINENSKPAITTYRHAEKQKRTDYSGKFDPATLMEFITKSSIPSIIGISNGFTTDLLFHQKRPILIQIGGAGEFEPFSKLSARQDARKTYIFTKIDGESEMIKKTKKALGVGENESIIVFLNKDRVHRIPISKPKCPDHLQKILQMIITSEADQVLSTKEPHPLRYLQVEKVNEVFGFEETLVLPDHTLFLDSDPFSRHPPITEGGGGGCPFMQGGGAPTESSQHSEL | not soluble
MWQLKKEQNVPIYRSIMEMIVQKIQTGELLPGEKIPSERKLAEYLSVNRSTVVHALDELVDLGWIVRKRGSGTIVNEGKWGVMMTPRTDWHRYLEQNVFKQVHPLVTEIELRAKQNLPTDLDMYTGELPLDLIPSFDFPALNWKQFLKEEAQDELGYLPLRKEIQAITATEYQLHLPSESLLLTSGAQQALFLVLQVLLRQGDSVAVEDPSFFYALPIFQAAGVRLFGVPMTEEGIDLEALEQTIRQHRIKMVMVNPSFQNPTGTVMPLRKREQLVKVCQTYQVPILEDDVFGQLSFIPKTEIPPLKKLDPDNVLYIGSLSKILGSTTKIGWLSAPASVTKQIAEARKMMDVSLSIFPQMLAKMAIEDPSFSEKITLLNKQVEQRATAVYQVFKSLSEWEVSPVKGGFYLWAHWRQGALKPEDWQVFLREGVLVAPSVAFSEKRGSIRLNCSRISPEEMPLFCERMVRITRQLSENRQTKIEQ | not soluble
